B1: AXIN1 peptide 235-250 (Axin-1), 16-mer library wild type / PP2A B56 (PPP2R5A B56 domain, residues 1-486) (parent complex)
chain 1: SGYLPTLNEDEEWKAD
chain 2: not shown

This test covers variants of B1. In words: proteomic peptide phage display deep mutational scan (ProP-PD DMS): M13 P8 16-mer library selected against immobilised GST-tagged bait for four days (rounds), NGS of the eluted pools per day and pseudo-replica; bait immobilised on MaxiSorp plates (10 µg), library pre-cleared on GST, 2 h binding at 4 °C, five washes; one round per day, days 1-4; value from days 2 and 3.
As for chain 1 A15F, the screen value is 0.000658 average fractional NGS count over selection days 2 and 3 (reads of this peptide / all reads for the bait, averaged over ….
With chain 1 A15M the figure was 0.00211 average fractional NGS count over selection days 2 and 3 (reads of this peptide / all reads for the bait, averaged over ….
Regarding chain 1 A15I, the screen value was 0.000279 average fractional NGS count over selection days 2 and 3 (reads of this peptide / all reads for the bait, averaged over ….
As to chain 1 A15N, the screen value is 0.000145 average fractional NGS count over selection days 2 and 3 (reads of this peptide / all reads for the bait, averaged over ….
For chain 1 A15W, the screen value was 0.000559 average fractional NGS count over selection days 2 and 3 (reads of this peptide / all reads for the bait, averaged over ….
With chain 1 A15L the figure was 0.00106 average fractional NGS count over selection days 2 and 3 (reads of this peptide / all reads for the bait, averaged over …; with chain 1 A15S, 0.000672 average fractional NGS count over selection days 2 and 3 (reads of this peptide / all reads for the bait, averaged over …; with chain 1 A15H, 0.00152 average fractional NGS count over selection days 2 and 3 (reads of this peptide / all reads for the bait, averaged over ….
With chain 1 A15V the figure was 0.00273 average fractional NGS count over selection days 2 and 3 (reads of this peptide / all reads for the bait, averaged over …; with chain 1 A15E, 0.000423 average fractional NGS count over selection days 2 and 3 (reads of this peptide / all reads for the bait, averaged over …; with chain 1 A15Q, 0.000281 average fractional NGS count over selection days 2 and 3 (reads of this peptide / all reads for the bait, averaged over ….
Take chain 1 E12Y: the screen value is 0.000809 average fractional NGS count over selection days 2 and 3 (reads of this peptide / all reads for the bait, averaged over ….
The value for chain 1 E12V was 0.000291 average fractional NGS count over selection days 2 and 3 (reads of this peptide / all reads for the bait, averaged over …; that for chain 1 E12S was 0.000153 average fractional NGS count over selection days 2 and 3 (reads of this peptide / all reads for the bait, averaged over …; that for chain 1 E12F was 0.000153 average fractional NGS count over selection days 2 and 3 (reads of this peptide / all reads for the bait, averaged over ….
With chain 1 E12M the figure was 0.000888 average fractional NGS count over selection days 2 and 3 (reads of this peptide / all reads for the bait, averaged over …; with chain 1 E12I, 0.00181 average fractional NGS count over selection days 2 and 3 (reads of this peptide / all reads for the bait, averaged over …; with chain 1 D10N, 0.000347 average fractional NGS count over selection days 2 and 3 (reads of this peptide / all reads for the bait, averaged over ….
With chain 1 D10F the figure was 0.000124 average fractional NGS count over selection days 2 and 3 (reads of this peptide / all reads for the bait, averaged over …; with chain 1 D10H, 0.000355 average fractional NGS count over selection days 2 and 3 (reads of this peptide / all reads for the bait, averaged over ….
chain 1 D10Q: the screen value was 0.00101 average fractional NGS count over selection days 2 and 3 (reads of this peptide / all reads for the bait, averaged over ….
On to chain 1 D10A, for which the screen value is 0.00348 average fractional NGS count over selection days 2 and 3 (reads of this peptide / all reads for the bait, averaged over ….
The value for chain 1 D10W was 0.0017 average fractional NGS count over selection days 2 and 3 (reads of this peptide / all reads for the bait, averaged over …; that for chain 1 D10I was 0.00126 average fractional NGS count over selection days 2 and 3 (reads of this peptide / all reads for the bait, averaged over …; that for chain 1 D10S was 0.000583 average fractional NGS count over selection days 2 and 3 (reads of this peptide / all reads for the bait, averaged over ….
Take chain 1 T6P: the screen value is 0.000157 average fractional NGS count over selection days 2 and 3 (reads of this peptide / all reads for the bait, averaged over ….
With chain 1 T6I the figure was 0.000627 average fractional NGS count over selection days 2 and 3 (reads of this peptide / all reads for the bait, averaged over ….
The value for chain 1 K14S was 0.000394 average fractional NGS count over selection days 2 and 3 (reads of this peptide / all reads for the bait, averaged over ….
For the variant chain 1 K14Q, the screen value was 0.00109 average fractional NGS count over selection days 2 and 3 (reads of this peptide / all reads for the bait, averaged over ….
The value for chain 1 K14R was 0.000196 average fractional NGS count over selection days 2 and 3 (reads of this peptide / all reads for the bait, averaged over …; that for chain 1 K14A was 0.000829 average fractional NGS count over selection days 2 and 3 (reads of this peptide / all reads for the bait, averaged over …; that for chain 1 K14H was 0.00281 average fractional NGS count over selection days 2 and 3 (reads of this peptide / all reads for the bait, averaged over ….
With chain 1 K14T the figure was 0.000943 average fractional NGS count over selection days 2 and 3 (reads of this peptide / all reads for the bait, averaged over …; with chain 1 K14F, 0.00121 average fractional NGS count over selection days 2 and 3 (reads of this peptide / all reads for the bait, averaged over …; with chain 1 K14M, 0.000958 average fractional NGS count over selection days 2 and 3 (reads of this peptide / all reads for the bait, averaged over ….
The value for chain 1 K14Y was 0.00389 average fractional NGS count over selection days 2 and 3 (reads of this peptide / all reads for the bait, averaged over …; that for chain 1 K14L was 0.00437 average fractional NGS count over selection days 2 and 3 (reads of this peptide / all reads for the bait, averaged over …; that for chain 1 Y3M was 0.000836 average fractional NGS count over selection days 2 and 3 (reads of this peptide / all reads for the bait, averaged over ….
For the variant chain 1 Y3A, the screen value was 0.00043 average fractional NGS count over selection days 2 and 3 (reads of this peptide / all reads for the bait, averaged over ….
The value for chain 1 Y3W was 0.00058 average fractional NGS count over selection days 2 and 3 (reads of this peptide / all reads for the bait, averaged over …; that for chain 1 Y3F was 0.000133 average fractional NGS count over selection days 2 and 3 (reads of this peptide / all reads for the bait, averaged over …; that for chain 1 Y3Q was 0.000114 average fractional NGS count over selection days 2 and 3 (reads of this peptide / all reads for the bait, averaged over ….
With chain 1 Y3L the figure was 0.000544 average fractional NGS count over selection days 2 and 3 (reads of this peptide / all reads for the bait, averaged over …; with chain 1 W13F, 0.000389 average fractional NGS count over selection days 2 and 3 (reads of this peptide / all reads for the bait, averaged over ….
With chain 1 W13V the figure was 0.000494 average fractional NGS count over selection days 2 and 3 (reads of this peptide / all reads for the bait, averaged over …; with chain 1 G2T, 0.00134 average fractional NGS count over selection days 2 and 3 (reads of this peptide / all reads for the bait, averaged over …; with chain 1 G2E, 0.000393 average fractional NGS count over selection days 2 and 3 (reads of this peptide / all reads for the bait, averaged over ….
On to chain 1 G2M, for which the screen value was 0.0011 average fractional NGS count over selection days 2 and 3 (reads of this peptide / all reads for the bait, averaged over ….
The value for chain 1 G2I was 0.000957 average fractional NGS count over selection days 2 and 3 (reads of this peptide / all reads for the bait, averaged over …; that for chain 1 G2V was 0.000268 average fractional NGS count over selection days 2 and 3 (reads of this peptide / all reads for the bait, averaged over ….
chain 1 G2K: the screen value was 0.000562 average fractional NGS count over selection days 2 and 3 (reads of this peptide / all reads for the bait, averaged over ….
With chain 1 G2P the figure was 0.0013 average fractional NGS count over selection days 2 and 3 (reads of this peptide / all reads for the bait, averaged over ….
The value for chain 1 G2A was 0.00077 average fractional NGS count over selection days 2 and 3 (reads of this peptide / all reads for the bait, averaged over …; that for chain 1 D16F was 0.00025 average fractional NGS count over selection days 2 and 3 (reads of this peptide / all reads for the bait, averaged over …; that for chain 1 D16Y was 0.00243 average fractional NGS count over selection days 2 and 3 (reads of this peptide / all reads for the bait, averaged over ….
With chain 1 D16A the figure was 0.00219 average fractional NGS count over selection days 2 and 3 (reads of this peptide / all reads for the bait, averaged over ….
Consider chain 1 D16W, for which the screen value is 0.000506 average fractional NGS count over selection days 2 and 3 (reads of this peptide / all reads for the bait, averaged over ….
With chain 1 D16L the figure was 0.000211 average fractional NGS count over selection days 2 and 3 (reads of this peptide / all reads for the bait, averaged over …; with chain 1 D16H, 0.0014 average fractional NGS count over selection days 2 and 3 (reads of this peptide / all reads for the bait, averaged over ….
On to chain 1 D16I, for which the screen value was 0.000497 average fractional NGS count over selection days 2 and 3 (reads of this peptide / all reads for the bait, averaged over ….
The value for chain 1 D16Q was 0.00121 average fractional NGS count over selection days 2 and 3 (reads of this peptide / all reads for the bait, averaged over …; that for chain 1 E11R was 0.000311 average fractional NGS count over selection days 2 and 3 (reads of this peptide / all reads for the bait, averaged over …; that for chain 1 E11N was 0.00018 average fractional NGS count over selection days 2 and 3 (reads of this peptide / all reads for the bait, averaged over ….
With chain 1 E11A the figure was 0.000236 average fractional NGS count over selection days 2 and 3 (reads of this peptide / all reads for the bait, averaged over …; with chain 1 E11H, 0.000134 average fractional NGS count over selection days 2 and 3 (reads of this peptide / all reads for the bait, averaged over …; with chain 1 E11W, 0.000117 average fractional NGS count over selection days 2 and 3 (reads of this peptide / all reads for the bait, averaged over ….
As to chain 1 E11M, the screen value was 0.00494 average fractional NGS count over selection days 2 and 3 (reads of this peptide / all reads for the bait, averaged over ….
Turning to chain 1 E11T, the screen value is 0.0139 average fractional NGS count over selection days 2 and 3 (reads of this peptide / all reads for the bait, averaged over ….
The value for chain 1 N8I was 0.00188 average fractional NGS count over selection days 2 and 3 (reads of this peptide / all reads for the bait, averaged over ….
With chain 1 N8T the figure was 0.000511 average fractional NGS count over selection days 2 and 3 (reads of this peptide / all reads for the bait, averaged over …; with chain 1 N8Q, 0.00306 average fractional NGS count over selection days 2 and 3 (reads of this peptide / all reads for the bait, averaged over …; with chain 1 N8M, 0.000721 average fractional NGS count over selection days 2 and 3 (reads of this peptide / all reads for the bait, averaged over ….
On to chain 1 N8W, for which the screen value was 0.000126 average fractional NGS count over selection days 2 and 3 (reads of this peptide / all reads for the bait, averaged over ….
chain 1 N8L: the screen value is 0.000128 average fractional NGS count over selection days 2 and 3 (reads of this peptide / all reads for the bait, averaged over ….
The value for chain 1 N8V was 0.022 average fractional NGS count over selection days 2 and 3 (reads of this peptide / all reads for the bait, averaged over …; that for chain 1 N8H was 0.000177 average fractional NGS count over selection days 2 and 3 (reads of this peptide / all reads for the bait, averaged over …; that for chain 1 N8Y was 0.00143 average fractional NGS count over selection days 2 and 3 (reads of this peptide / all reads for the bait, averaged over ….
